According to patent publication US20110236385A1 (GOVERNMENT OF THE UNITED STATES OF AMERICA AS REPRESENTED …, published 2011):
One block for each binder: values may come before it. Ends that are not written are not given here.

Columns and labels:
[1] = target: T1, soluble CA125 in OVCAR-3 supernatant (human, UniProt Q8WXI7 1-14439, limits assumed, heavily glycosylated with O-linked and N-linked oligosaccharides); assay: sandwich ELISA, captured rFc fusion, OVCAR-3 supernatant, OC125 detection
T1 construct: Not purified: used as OVCAR-3 culture supernatant, detected with the anti-CA125 mAb OC125; also called MUC16; OVCAR-3 supernatant containing CA125
Procedure: (§1) Sandwich ELISA—Nunc MaxiSorp 96 well flat-bottomed plates were incubated overnight with 5 μg/mL, goat anti-rabbit IgG (Jackson ImmunoResearch Laboratories) in PBS, followed by an overnight block with 5% BSA, 0.01% NaN₃ in PBS. Purified Fc mesothelin fragments were diluted to 1 μg/mL in ELISA buffer (0.01% Tween 20, 10% Pierce SuperBlock) and incubated on plate for 1 h at room temperature (RT). Plates were then incubated with OVCAR-3 supernatant containing CA125 for 1 h at RT. To detect bound CA125 a 1:200 dilution of anti-CA125 OC125 mAb (Zymed) was incubated for an additional hour at RT; subsequently a 1:1500 dilution of goat anti-mouse IgG HRP conjugate (Biosource) was added for 1 h at RT. The plates were washed four times with ELISA buffer between each coating.
(§2) Kinetic studies by ELISA—To precisely characterize the interaction between CA125 and mesothelin and to determine a binding affinity (KD) for each mesothelin fragment, we used a quantitative ELISA-based assay. ELISA plates were coated with a goat anti-rabbit IgG antibody overnight for capturing the Fc mesothelin mutant fusion proteins. OVCAR-3 supernatant containing soluble CA125 was then added, followed by the OC125 mAb. Overall results from the ELISA were consistent with those seen in the Western blot overlay assays except for the E324A mutant of mesothelin (FIG. 5).

[2] = target: T2, CA125 on the cell surface of OVCAR-3 or YOU cells (human, UniProt Q8WXI7 1-14507, heavily glycosylated with O-linked and N-linked oligosaccharides); assay: flow cytometry on OVCAR-3 cells, FULL set to 100%
T2 construct: whole, on cells; also called MUC16; human CA125
Procedure: FIGS. 6A-B. Binding of truncated mutants and alanine mutants to CA125 on the cell surface of OVCAR-3 cells. A. OVCAR-3 ovarian cancer cells were incubated with full-length extracellular domain of mesothelin (FULL), Region I, IAB or IBC. The binding was visualized with a goat anti-rabbit IgG PE-conjugated secondary antibody by flow cytometry (gray line). Light gray shaded plot: secondary antibody only. B. A fluorescence intensity (geometrical mean) was used to quantitatively measure the CA125 binding. In each experiment, the binding of the full-length mature form of mesothelin (FULL) to CA125 was determined as 100% of binding. The secondary antibody only was used as a negative (0%) control.
(§3) Flow cytometry—To determine binding of mesothelin fragments to CA125 on the cell surface, OVCAR-3 or YOU cells were grown until confluent, detached, and then incubated with 1 μg/mL of mesothelin or its fragments in FACS buffer (5% BSA, 0.01% NaN₃) for 1 h on ice. Bound fragments were detected by incubating with a 1:200 dilution of Goat anti-Rabbit IgG-PE (Biosource) secondary antibody in FACS buffer for 0.5 h on ice. Cells were analyzed using FACSCalibur (BD Biosciences). Each binding experiment was repeated three to five times.
Cell binding assays by flow cytometry—To assess binding to CA125 on cancer cells, wild-type mesothelin and its mutants were incubated with cells. […]

[3] = target: T1, soluble CA125 in OVCAR-3 supernatant; assay: sandwich ELISA; average KD told of three proteins
Procedure: (§4) Scatchard plots (top left corner) were made. ELISA plates captured the Fc mesothelin mutant fusion proteins at various concentrations (x axis; see Experimental Procedures). OVCAR-3 supernatant containing soluble CA125 was then added, followed by the OC125 mAb and a goat anti-mouse IgG HRP.
as §1
Kinetic studies by ELISA—To precisely characterize the interaction between CA125 and mesothelin and to determine a binding affinity (KD) for each mesothelin fragment, we used a quantitative ELISA-based assay. ELISA plates were coated with a goat anti-rabbit IgG antibody overnight for capturing the Fc mesothelin mutant fusion proteins. […]

[4] = target: T1, soluble CA125 in OVCAR-3 supernatant; assay: sandwich ELISA, captured rFc fusion at various concentrations, OVCAR-3 supernatant, OC125 detection; nonlinear regression/Scatchard
Procedure: as §4, §1, §2

[5] = target: T1, soluble CA125 in OVCAR-3 supernatant; assay: Western blot overlay with OVCAR-3 supernatant, OC125 detection
Procedure: FIGS. 4A-B. Western blots of mesothelin fragments and alanine mutants. Each protein (500 ng) was run on an SDS-PAGE gel and transferred to a PVDF membrane. Membrane was blotted with OVCAR-3 supernatant containing CA125 followed by OC125 (anti-CA125 mAb).
Western blots—Purified Fc mesothelin fragments (500 ng) were mixed with Laemmli Sample Buffer (Biorad) supplemented with 5% B-Mercaptoethanol. Samples were boiled for 2 min and separated on 4-20% SDS-PAGE gels (Invitrogen). After transfer for 4 h at 30V, the PVDF membrane was blocked overnight at 4° C. in 1% Western Blocking Reagent (Roche) in Tris buffered saline (50 mM Tris-HCl, 150 mM NaCl). The membrane was then incubated with OVCAR-3 supernatant+0.5% blocking solution for 1 h at RT. This was followed by incubation with 1:200 dilution of OC125 mAb for 1 h at RT. Detection was performed with goat anti-mouse IgG-HRP conjugate (Biosource) 1:1000 for 1 h.

[6] = target: CA125 on the cell surface of OVCAR-3 or YOU cells (human) (UniProt Q8WXI7); assay: cell-based or functional assay
[7] = target: soluble CA125 in OVCAR-3 supernatant (human) (UniProt Q8WXI7); assay: sandwich ELISA; average KD told of three proteins
[8] = target: soluble CA125 in OVCAR-3 supernatant (human) (UniProt Q8WXI7); assay: sandwich ELISA, captured rFc fusion at various concentrations, OVCAR-3 supernatant, OC125 detection; nonlinear regression/Scatchard
[9] = target: T2, CA125 on the cell surface of OVCAR-3 or …; assay: flow cytometry on YOU cells, FULL set to 100%
Procedure: FIGS. 7A-B. Binding of truncated mutants and alanine mutants to CA125 on the cell surface of YOU cells. A. YOU mesothelioma cells were incubated with full-length extracellular domain of mesothelin (FULL) or a mutant of mesothelin. The binding was visualized with a goat anti-rabbit IgG PE-conjugated secondary antibody by flow cytometry (gray line). Light gray shaded plot: secondary antibody only. B. A mean fluorescence intensity (geometrical mean) was used to quantitatively measure the CA125 binding on YOU cells. In each experiment, the binding of the full-length mesothelin (FULL) to CA125 was determined as 100% of binding. The secondary antibody only was used as a negative (0%) control.
as §3

B1: mesothelin Region IC (360-405) rabbit IgG Fc fusion protein (Fc fusion, not shown: a dimerising Fc or GST; small tags and cut ends)
chain: YPQGYPESVIQHLGYLFLKMSPEDIRKWNVTSLETLKALLEVNKGH
modifications: also: fusion with rabbit IgG Fc, thrombin site with flexible linker, myc epitope (no letters given)
binding result [1]: no binding

B2: mesothelin Region IAB (296-359) rabbit IgG Fc fusion protein (Fc fusion, not shown: a dimerising Fc or GST; small tags and cut ends)
chain: EVEKTACPSGKKAREIDESLIFYKKWELEACVDAALLATQMDRVNAIPFTYEQLDVLKHKLDEL
notes: also called Region IAB wild-type (wt)
binding activity relative to FULL [2]: ~90%
Kd [3]: ~3 nM
Kd [4]: 3.35 nM

B4: H354A alanine mutant of mesothelin Region IAB (296-359), rabbit IgG Fc fusion protein (Fc fusion, not shown: a dimerising Fc or GST; small tags and cut ends)
chain: EVEKTACPSGKKAREIDESLIFYKKWELEACVDAALLATQMDRVNAIPFTYEQLDVLKAKLDEL
notes: Alanine mutant within Region IAB; also called H354A mutant of IAB
Kd [4]: 2.71 nM

B5: E324A alanine mutant of mesothelin Region IAB (296-359), rabbit IgG Fc fusion protein (Fc fusion, not shown: a dimerising Fc or GST; small tags and cut ends)
chain: EVEKTACPSGKKAREIDESLIFYKKWELAACVDAALLATQMDRVNAIPFTYEQLDVLKHKLDEL
notes: Alanine mutant within Region IAB
Kd [4]: 42.4 nM

B6: Y318A alanine mutant of mesothelin Region IAB (296-359), rabbit IgG Fc fusion protein (Fc fusion, not shown: a dimerising Fc or GST; small tags and cut ends)
chain: EVEKTACPSGKKAREIDESLIFAKKWELEACVDAALLATQMDRVNAIPFTYEQLDVLKHKLDEL
notes: as for B5
binding result [1]: no binding

B9: mesothelin Region I (296-390) rabbit IgG Fc fusion protein (Fc fusion, not shown: a dimerising Fc or GST; small tags and cut ends)
chain: EVEKTACPSGKKAREIDESLIFYKKWELEACVDAALLATQMDRVNAIPFTYEQLDVLKHKLDELYPQGYPESVIQHLGYLFLKMSPEDIRKWNVT
CA125 binding activity relative to FULL [9]: ~40%
Kd [3]: ~3 nM

B10: mesothelin Region IB (328-369) rabbit IgG Fc fusion protein (Fc fusion, not shown: a dimerising Fc or GST; small tags and cut ends)
chain: DAALLATQMDRVNAIPFTYEQLDVLKHKLDELYPQGYPESVI
modifications: also: fusion with rabbit IgG Fc, thrombin site with flexible linker, myc epitope (no letters given)
binding activity relative to FULL [9]: ~10%
CA125-binding activity relative to FULL [2]: ~10%
binding result [1]: no binding

More lines, now with the values ahead:

Kd [4]: 19.5 nM
B3: W321A alanine mutant of mesothelin Region IAB (296-359), rabbit IgG Fc fusion protein (Fc fusion, not shown: a dimerising Fc or GST; small tags and cut ends)
chain: EVEKTACPSGKKAREIDESLIFYKKAELEACVDAALLATQMDRVNAIPFTYEQLDVLKHKLDEL
notes: as for B5

binding result [5]: no binding (tested: 500 ng)
B7: mesothelin Region IBC (328-405) rabbit IgG Fc fusion protein (Fc fusion, not shown: a dimerising Fc or GST; small tags and cut ends)
chain: DAALLATQMDRVNAIPFTYEQLDVLKHKLDELYPQGYPESVIQHLGYLFLKMSPEDIRKWNVTSLETLKALLEVNKGH

adhesion of fluorescently labeled mesothelin-expressing H9 cells onto a YOU monolayer [6]: 1 µg/mL
adhesion of fluorescently labeled mesothelin-expressing H9 cells onto an OVCAR3 monolayer [6]: 10 µg/mL
Kd [7]: 3 nM
Kd [8]: 1.54 nM
B8: rabbit IgG Fc fusion of the full-length extracellular domain of mesothelin (296-581) (Fc fusion, part only; not given: rabbit Fc, linker, myc tag, not shown: a dimerising Fc or GST; small tags and cut ends)
chain (part 1 of 2), part: EVEKTACPSGKKAREIDESLIFYKKWELEACVDAALLATQMDRVNAIPFTYEQLDVLKHKLDELYPQGYPESVIQHLGYLFLKMSPEDIRKWNVTSLETLKALLEVNKGHEMSPQAPRRPLPQVATLIDRFVKGRGQLDKDTLDTLTAFYPGYLCSLSPEELSSVPPSSIWAVRPQDLDTCDPRQLDVLYPKARLAFQNMNGSEYFVKIQSFLGGAPTEDLKALSQQNVSMDLATFMKLRTDAVLPLTVAEVQKLLGPHVEGLKAEERHRPVRDWILRQRQDDLDT
chain (part 2 of 2), part: HHHHHH

binding result [5]: no binding (tested: 500 ng)
B11: mesothelin Region IA (296-337) rabbit IgG Fc fusion protein, rFc at the C-terminus (Fc fusion)
chain: EVEKTACPSGKKAREIDESLIFYKKWELEACVDAALLATQMD
notes: not shown: junction between fragment and rFc, and any tags, not described for this construct; rabbit IgG Fc (rFc)
